According to patent US6972319B1, “Pituitary adenylate cyclase activating peptide (PACAP)receptor 3 (R3) agonists and their pharmacological methods of use” (priority 1999, dated 2005):
No end group written: not given here.

T1: PACAP-R2 (Homo sapiens, UniProt P32241)
T1 construct: expressed in transfected cells; host or cells: CHO cells
T1 sequence (P32241 31-457): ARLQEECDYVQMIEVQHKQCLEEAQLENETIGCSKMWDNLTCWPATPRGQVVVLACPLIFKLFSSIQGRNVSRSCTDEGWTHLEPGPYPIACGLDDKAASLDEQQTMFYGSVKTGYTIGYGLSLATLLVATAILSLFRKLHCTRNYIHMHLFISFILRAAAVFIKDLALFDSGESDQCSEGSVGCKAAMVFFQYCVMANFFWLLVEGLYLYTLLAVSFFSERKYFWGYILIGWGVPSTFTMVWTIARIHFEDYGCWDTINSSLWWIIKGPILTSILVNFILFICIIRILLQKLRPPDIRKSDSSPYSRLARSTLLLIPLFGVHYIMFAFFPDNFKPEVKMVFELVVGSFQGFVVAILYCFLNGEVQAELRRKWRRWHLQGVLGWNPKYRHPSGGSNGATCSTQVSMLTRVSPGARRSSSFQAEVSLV

T2: PACAP-R3 (Homo sapiens, UniProt P41587)
T2 sequence (P41587 24-438): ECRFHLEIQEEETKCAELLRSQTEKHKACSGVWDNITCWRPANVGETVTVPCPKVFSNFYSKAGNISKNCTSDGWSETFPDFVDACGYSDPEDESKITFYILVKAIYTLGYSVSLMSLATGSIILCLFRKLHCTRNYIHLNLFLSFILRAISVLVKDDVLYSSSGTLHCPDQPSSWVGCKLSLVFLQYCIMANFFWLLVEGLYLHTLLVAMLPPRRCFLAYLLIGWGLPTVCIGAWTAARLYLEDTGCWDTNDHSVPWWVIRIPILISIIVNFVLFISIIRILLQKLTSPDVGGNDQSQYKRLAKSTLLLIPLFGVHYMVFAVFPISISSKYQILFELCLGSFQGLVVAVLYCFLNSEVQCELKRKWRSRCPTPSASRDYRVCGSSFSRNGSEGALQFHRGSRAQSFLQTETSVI

T3: PACAP-R3 (human, UniProt P41587 24-438)
T3 sequence (looked up): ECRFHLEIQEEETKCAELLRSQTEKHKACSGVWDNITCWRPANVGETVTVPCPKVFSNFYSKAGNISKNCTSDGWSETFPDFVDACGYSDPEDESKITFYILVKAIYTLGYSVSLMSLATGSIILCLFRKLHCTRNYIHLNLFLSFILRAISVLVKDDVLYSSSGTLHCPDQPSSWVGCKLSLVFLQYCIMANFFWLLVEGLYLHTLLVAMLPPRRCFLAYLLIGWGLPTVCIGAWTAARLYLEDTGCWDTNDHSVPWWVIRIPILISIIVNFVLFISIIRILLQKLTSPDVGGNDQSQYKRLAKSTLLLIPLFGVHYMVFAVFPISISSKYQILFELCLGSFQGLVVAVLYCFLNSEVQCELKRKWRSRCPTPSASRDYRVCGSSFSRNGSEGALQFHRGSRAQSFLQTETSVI


Tests used:
PACAP-R2 = biological target: T1, PACAP-R2; assay: Cyclic AMP SPA on CHO cells transfected with PACAP-R2; type: cell-based; settings: cAMP SPA, concentration at which 50% of maximum PACAP27 activity is achieved, NA = no detectable activities, read-out: R2 EC50
Outline: (§1)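 Receptor-transfected CHO cells are stimulated with peptide for 15 min at 37 C in the presence of phosphodiesterase inhibitor IBMX (100 uM), bacitracin and soybean trypsin inhibitor; cAMP is then read by scintillation proximity.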

PACAP-R3 [1] = biological target: T2, PACAP-R3; assay: Cyclic AMP SPA on CHO cells expressing PACAP R3; type: cell-based; design: expressed in transfected cells; host or cells: CHO cells (Geneticin selection); settings: for EC50: cAMP SPA, CHO cells transfected with PACAP-R3, concentration at which 50% of maximum PACAP27 activity is achieved, NA = no detectable activities, read-out: R3 EC50; for R3 Selectivity: ratio of EC50 at R2 versus EC50 at R3
Outline: as §1

PACAP-R3 [2] = biological target: T3, PACAP-R3; assay: cell-based or functional assay

Molecule	EC50 (PACAP-R2) [nM]	EC50 (PACAP-R3 [1]) [nM]	R3 Selectivity (PACAP-R3 [1])	R3 EC50, nM (cAMP SPA) (PACAP-R3 [2]) [nM]	R3 Selectivity (PACAP-R3 [2]) [ratio]
CC[C@H](C)[C@H](NC(=O)[C@H](CO)NC(=O)[C@H](CC(N)=O)NC(=O)[C@H](CC(C)C)NC(=O)[C@H](Cc1ccc(O)cc1)NC(=O)[C@H](CCCCN)NC(=O)[C@H](CCCCN)NC(=O)[C@@H](NC(=O)[C@H](C)NC(=O)[C@H](CCSC)NC(=O)[C@H](CCC(N)=O)NC(=O)[C@H](CCCCN)NC(=O)[C@H](CCCNC(=N)N)NC(=O)[C@H](CC(C)C)NC(=O)[C@H](CCCNC(=N)N)NC(=O)[C@@H](NC(=O)[C@H](Cc1ccc(O)cc1)NC(=O)[C@H](CC(N)=O)NC(=O)[C@H](CC(=O)O)NC(=O)[C@@H](NC(=O)[C@H](Cc1ccccc1)NC(=O)[C@@H](NC(=O)[C@H](C)NC(=O)[C@H](CC(=O)O)NC(=O)[C@H](CO)NC(=O)[C@@H](N)Cc1c[nH]cn1)C(C)C)[C@@H](C)O)[C@@H](C)O)C(C)C)C(=O)N[C@@H](CCCCN)C(=O)N[C@@H](CC(N)=O)C(=O)N[C@@H](CCCCN)C(=O)N[C@@H](CCCNC(=N)N)C(=O)N[C@@H](Cc1ccc(O)cc1)C(=O)O [Peptide R3P59]	10	0.15	70		
HSDAVFTDNYTRLRKQMAVKKYLNDILN [Peptide R3P48]	1	0.13	8		
HSDAVFTDNYTRLRKQVAVKKYLQSILKKR [Peptide R3P88]	0.89	0.08	12		
HSDAVFTDNYTRLRKQMAVKKYLNSIKKK [Peptide R3P58]	55	0.32	170		
HSDAVFTDNYTRLRKQMARKKYLNSIKNRI [rR3P177]	110	1.6	70		
HSDGIFTDSYSRYRKQMAVKEYLAAVL-NH2 [PAC21]	2.5	0.24	10		
H-HSDAVFTDNYTRLRKQMAGKKYLNSIRNRI [rR3P190]	220	2.2	100		
HSDGIFTDSYSRYREQMAVKKYLAAVL-NH2 [PAC15]				0.2	12
HSDAVFTDNYTRLRKQMAAKKYLNSIKNKT [R3P168]				0.2	300
HSDGIFTDSKSRYRKQMAVKKYLAAVL-NH2 [PAC10]				27	4
HSDGIFTDSYSRYRKQMAVKKYKAAVL-NH2 [PAC23]				13	13
HSDGIFTDSYSRYRKQMAVKEYLAAVL-NH2 [PAC21]				0.24	10
ESDGIFTDSYSRYRKQMAVKKYLAAVL-NH2 [PAC1]				10	97
HSDAVFTDNYTRLRKQMAAKKYLNSIKNKY [R3P171]				0.4	
HSDGIFTDSYSRKRKQMAVKKYLAAVL-NH2 [PAC13]				0.5	6
HKDGIFTDSYSRYRKQMAVKKYLAAVL-NH2 [PAC2]				34	
HSDGIFTDSYSRYRKQMAVKKYLAAKL-NH2 [PAC26]				0.3	1
HSDAVFTDNYTRLRKQMAAKKYLNSIKNKV [R3P169]				0.2	300
HSDAVFTDNYTRLRKQVAAKKYLQSIKNKRYSWCEPGWCR [R3P172]				2.6	29
HSDGIFTDSYSEYRKQMAVKKYLAAVL-NH2 [PAC12]				3	50

Molecule	EC50 (PACAP-R2) [nM]	EC50 (PACAP-R3 [1]) [nM]	R3 Selectivity (PACAP-R3 [1])	R3 EC50, nM (cAMP SPA) (PACAP-R3 [2]) [nM]	R3 Selectivity (PACAP-R3 [2]) [ratio]
HSDKIFTDSYSRYRKQMAVKKYLAAVL-NH2 [PAC4]				7	6
HSDGIFTDSYSRYRKQMAVEKYLAAVL-NH2 [PAC20]				0.7	30
HSDGIFTDSYSRYRKQMAKKKYLAAVL-NH2 [PAC19]				0.4	20
HSDGIFTDKYSRYRKQMAVKKYLAAVL-NH2 [PAC9]				0.7	1
HSDAVFTDNYTRLRKQMAAKKYLNSIKNKP [R3P165]				0.5	300
HSDGIFTDSYSRYRKQMAVKKKLAAVL-NH2 [PAC22]				15	0.1
HSDAVFTDNYTRLRKQMAAKKYLNSIKNKS [R3P167]				1	
HSDAVFTDNYTRLRKQMAAKKYLNSIKNRI [rR3P174]				0.2	90
HSDGIFTDSYSRYRKKMAVKKYLAAVL-NH2 [PAC16]				0.2	1
HSDAVFTDNYTRLRKQMAGKKYLNSIKNRI [rR3P175]				2.2	180
HSDGIFTDSYSRYEKQMAVKKYLAAVL-NH2 [PAC14]				1.6	70
HSDGIFTDSYSRYRKQMAVKKYLAKVL-NH2 [PAC25]				0.04	3
HSDAVFTDDYTRLRKEVAAKKYLESIKDKRY [R3P173]				200	
HSDAVFTDNYTRLRKQMAKKKYLNSIKNRI [rR3P176]				2	150
HSDGIFTDSYSRYRKQKAVKKYLAAVL-NH2 [PAC17]				0.15	1.6
HSDGIFTDSYSRYRKQMAVKKYLKAVL-NH2 [PAC24]				0.2	1.5
HSDGIFTKSYSRYRKQMAVKKYLAAVL-NH2 [PAC8]				47	1
HSDGIFTDSYKRYRKQMAVKKYLAAVL-NH2 [PAC11]				140	0.1
HSDGIFTDSYSRYRKQMAVKKYLAAVK-NH2 [PAC27]				1.1	1.4
